According to paper PMC3760020:

Target: T1, GFP-p73α wild type, O15350
T1 chain: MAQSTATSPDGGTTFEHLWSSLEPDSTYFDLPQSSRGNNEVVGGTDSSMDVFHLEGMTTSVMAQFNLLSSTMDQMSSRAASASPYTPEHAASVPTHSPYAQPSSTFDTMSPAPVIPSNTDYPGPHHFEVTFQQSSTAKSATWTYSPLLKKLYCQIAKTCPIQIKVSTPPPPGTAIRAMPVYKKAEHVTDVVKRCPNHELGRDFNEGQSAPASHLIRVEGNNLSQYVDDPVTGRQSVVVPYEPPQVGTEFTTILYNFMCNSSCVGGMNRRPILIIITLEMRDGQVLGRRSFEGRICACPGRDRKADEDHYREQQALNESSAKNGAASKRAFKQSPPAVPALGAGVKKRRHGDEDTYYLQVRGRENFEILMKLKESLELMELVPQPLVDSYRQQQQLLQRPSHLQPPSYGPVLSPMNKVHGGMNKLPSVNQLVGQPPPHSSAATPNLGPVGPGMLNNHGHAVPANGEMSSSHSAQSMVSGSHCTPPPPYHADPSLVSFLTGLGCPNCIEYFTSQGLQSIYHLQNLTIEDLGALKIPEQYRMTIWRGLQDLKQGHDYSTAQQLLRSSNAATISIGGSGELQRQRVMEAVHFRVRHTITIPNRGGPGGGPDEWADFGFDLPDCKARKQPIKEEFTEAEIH
Assay: cross-linking
Settings: remark: other sources report otherwise

B1: GFP-p73α wild type, O15350-1 1-636 (natural protein)
chain: MAQSTATSPDGGTTFEHLWSSLEPDSTYFDLPQSSRGNNEVVGGTDSSMDVFHLEGMTTSVMAQFNLLSSTMDQMSSRAASASPYTPEHAASVPTHSPYAQPSSTFDTMSPAPVIPSNTDYPGPHHFEVTFQQSSTAKSATWTYSPLLKKLYCQIAKTCPIQIKVSTPPPPGTAIRAMPVYKKAEHVTDVVKRCPNHELGRDFNEGQSAPASHLIRVEGNNLSQYVDDPVTGRQSVVVPYEPPQVGTEFTTILYNFMCNSSCVGGMNRRPILIIITLEMRDGQVLGRRSFEGRICACPGRDRKADEDHYREQQALNESSAKNGAASKRAFKQSPPAVPALGAGVKKRRHGDEDTYYLQVRGRENFEILMKLKESLELMELVPQPLVDSYRQQQQLLQRPSHLQPPSYGPVLSPMNKVHGGMNKLPSVNQLVGQPPPHSSAATPNLGPVGPGMLNNHGHAVPANGEMSSSHSAQSMVSGSHCTPPPPYHADPSLVSFLTGLGCPNCIEYFTSQGLQSIYHLQNLTIEDLGALKIPEQYRMTIWRGLQDLKQGHDYSTAQQLLRSSNAATISIGGSGELQRQRVMEAVHFRVRHTITIPNRGGPGGGPDEWADFGFDLPDCKARKQPIKEEFTEAEIH
Question: With B1 as the binder, how does the stoichiometry N read?
Answer: 4
